Assay results as given in doi:10.1101/2020.04.18.045682.

Columns and labels:
[1] = target: Cas10d (Synechocystis sp. PCC 6803); experiment: affinity purification with mass spectrometry
[2] = target: type I-D Cascade lacking Cas11d (Synechocystis sp. PCC 6803); experiment: negative-stain electron microscopy, 3D reconstruction

| stoichiometry N [1] | stoichiometry N [2] | Substance |
| --- | --- | --- |
| 1 | – | Cas5d (natural protein) |
| 1 | – | Cas6d (natural protein) |
| 6 | – | Cas7d (natural protein) |
| 2 | 2 | Cas11d (natural protein) |
